For the assay, the target named is recombinant human FcγRIIIa (V158) (human) (UniProt P08637). As to the kind of experiment: SPR. (In general: Surface plasmon resonance follows binding to a sensor surface in real time, without labels.)
Chain of UniProt P08637 (P08637 17-208): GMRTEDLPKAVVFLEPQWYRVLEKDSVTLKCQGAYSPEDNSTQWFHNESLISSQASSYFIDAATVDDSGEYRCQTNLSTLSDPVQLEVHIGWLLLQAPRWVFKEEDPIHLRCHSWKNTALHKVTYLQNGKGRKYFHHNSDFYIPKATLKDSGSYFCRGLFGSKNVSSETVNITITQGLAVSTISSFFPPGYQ

As for “anti-EGFR hIgG1 chimeric mAb with variant hIgG1-Fc from donor vector phIgG-SDIE (from UniProt P01875)”, the Kd (in general, a measure of binding affinity in units of concentration) worked out at 7.42 nM.
As to “anti-EGFR hIgG1 chimeric mAb with variant hIgG1-Fc from donor vector phIgG-mu (from UniProt P01875)”, the Kd is 29.4 nM.

Values taken from publication PMC5131995.
